Experimental data: publication PMC10825162 (Nature Communications, 2024)

Molecular target: SARS-CoV-2 BA.1 RBD protein (SARS-CoV-2 Omicron BA.1, strain)
Assay: SPR
Settings: both partners purified

B1: BA7208 (antibody, V domains shown)
VH: EVQLVQSGAEVKKPGESLKISCKGSGYSFTSYYWIGWVRQMPGKGLEWMGIVYPDDSDTRYSPSFQGQVTISADKSISTAYLQWSSLKASDTAMYYCVRHPGGGDWYFDLWGRGTLVTVSS
VL: DIQMTQSPSTLSASVGDRVTITCRASQSISSWLAWYQQKPGKAPKLLIYKASSLESGVPSRFSGSGSGTEFTLTITSLQPDDFATYYCQQYDSFSWTFGQGTKLEIK
Kd: 1.81 nM
